The values that follow come from publication PMC2910265.

The target in the experiment is MglA^+ of Thermus thermophilus (Thermus thermophilus). Kind of experiment: fluorescence polarisation. In general terms: Fluorescence polarisation rises when a labelled molecule tumbles more slowly, as on binding a larger partner.

“MglB of Thermus thermophilus (natural protein)” had a fold higher affinity for MglA^+/mGppNHp than for MglA^+/GDP of 60 fold.
